Numbered stars: 1 amine (or outer) side, 2 acyl side, 3 side chain; on linkers, the order of the positions; unused ones are H or OH. Bridge positions count the residues as written; N and C are the ends. Square brackets hold non-standard residues; d marks the D form. * marks the point of attachment. C20 diacid = O=C(O)CCCCCCCCCCCCCCCCCCC(=O)*; γGlu = O=C(O)[C@H](CCC(=O)[*:2])N[*:1]; Hyp = O=C(O)[C@@H]1C[C@@H](O)CN1; NMeI = CC[C@H](C)[C@H](NC)C(=O)O; Aad = N[C@@H](CCCC(=O)O)C(=O)O; Sar = CNCC(=O)O
What was measured:
[1] = Solubility test: CPD 1 dissolved in alkaline MQW by stirring, visual control; format: physicochemical; conditions: in MQW (alkaline, NaOH)
Method: To test solubility, CPD 1 was dissolved in alkaline MQW (pH adjusted with NaOH) by stirring.

[2] = Physical stability evaluation by ThT-stress test (ASSAY IIId), lag-time of fibril formation; format: physicochemical; conditions: for ThT lag time: 1 mg/ml CPD 1, 20 mM TRIS, 118 mM NaCl
Method: Physical Stability Evaluation by ThT-Stress Test (ASSAY IIId)
A 1 mM ThT stock solution was prepared and 12 μL was mixed with 288 μL of CPD 1 formulation. Samples were loaded in a 96-well black fluorescence plate (clear bottom) in duplicate 2×150 μL. Data were collected in a Fluorescence Plate reader from Biotek Synergy™ H4 Hybrid Multi-Mode at fixed intervals of 10 min, each preceded by 300 s of auto mixing (agitation), over a period of up to 60 hours at 40° C. Physical stability, expressed as lag-time of fibril formation (in hours), was defined as the intersection between two linear regressions representing the initial stable phase and the growth phase.
Physical stability was evaluated in terms of fibril formation by ThT-stress test measured over 60 hours at 40° C. Initial peptide particle size (z-average) was also determined by DLS.

hAMYR2 = hAMYR2 (Homo sapiens, UniProt P30988); conditions: as described in WO 2018/046719; cited from earlier work
Chain of hAMYR2 (O60895 43-175 partner, one chain of several): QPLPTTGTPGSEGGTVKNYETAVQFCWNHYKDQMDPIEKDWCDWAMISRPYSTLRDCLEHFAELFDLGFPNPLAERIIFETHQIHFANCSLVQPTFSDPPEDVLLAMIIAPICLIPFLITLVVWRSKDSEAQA

hAMYR3 = target: T1, hAMYR3 (Homo sapiens, UniProt P30988); conditions: as described in WO 2018/046719; cited from earlier work
T1 sequence (P30988 25-474): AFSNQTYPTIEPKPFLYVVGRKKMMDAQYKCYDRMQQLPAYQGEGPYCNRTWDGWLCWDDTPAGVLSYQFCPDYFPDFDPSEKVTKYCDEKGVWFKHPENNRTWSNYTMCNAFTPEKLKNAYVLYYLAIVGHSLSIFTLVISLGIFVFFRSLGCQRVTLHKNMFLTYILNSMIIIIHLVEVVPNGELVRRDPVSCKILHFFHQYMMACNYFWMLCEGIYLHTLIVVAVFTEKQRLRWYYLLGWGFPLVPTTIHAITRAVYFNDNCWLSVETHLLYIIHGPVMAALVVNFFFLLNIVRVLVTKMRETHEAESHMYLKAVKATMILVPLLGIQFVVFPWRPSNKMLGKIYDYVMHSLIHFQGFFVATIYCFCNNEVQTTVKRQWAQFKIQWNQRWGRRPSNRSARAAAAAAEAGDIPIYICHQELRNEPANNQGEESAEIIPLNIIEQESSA
T1 sequence (O60896 24-148 partner): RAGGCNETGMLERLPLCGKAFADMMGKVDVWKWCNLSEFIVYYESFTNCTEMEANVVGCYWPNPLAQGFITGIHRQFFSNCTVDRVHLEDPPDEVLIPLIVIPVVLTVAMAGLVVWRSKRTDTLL

[3] = Dynamic light scattering (DLS) (ASSAY IIIc), peptide particle size; format: physicochemical; conditions: initial z-average by DLS, 1 mg/ml CPD 1, 20 mM TRIS, 118 mM NaCl
Method: Dynamic Light Scattering (DLS) (ASSAY IIIc)
Peptide particle size distribution was determined with dynamic light scattering analysis. The standard DLS experiment is conducted in a nunc 96 well plate with a sample volume of 165 μL and measured in a DynaPro Plate reader II instrument. Typically used parameters were temperature at 25° C., acquisition time 2 s, 50 acquisitions per sample, Detection: Hydrodynamic radius Rh, Correlation function cut off [μs]: […] and Peak radius cut off [nm]: 0.5-1000.

pI of the peptide = format: physicochemical
hAMYR1 = hAMYR1 (Homo sapiens, UniProt P30988); conditions: as described in WO 2018/046719; cited from earlier work
Chain of hAMYR1 (O60894 27-148 partner, one chain of several): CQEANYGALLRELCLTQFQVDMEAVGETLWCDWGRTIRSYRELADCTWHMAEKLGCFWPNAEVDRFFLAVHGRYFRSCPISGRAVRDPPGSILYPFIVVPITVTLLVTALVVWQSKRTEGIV

[4] = human trials; cited from earlier work

[19CD]-isoGlu-RD( )GTATK( )ATERLA-Aad-FLQRSSF-Gly(Me)-A-Ile(Me)-LSSTEVGSNT-Hyp-NH2 ({C20 diacid}-[γGlu]RDGTATKATERLA[Aad]FLQRSSF[Sar]A[NMeI]LSSTEVGSNT[Hyp]-NH2; lactam 3-8) [CPD 1]
Concentration at which CPD 1 could be dissolved to a clear solution [1]: up to 50 mg/ml
ThT lag time ([2]; pH 5.8, ThT-stress test over 60 hours at 40° C.): >60 h
ThT lag time ([2]; pH 6.0, over 60 hours at 40° C.): >60 h
ThT lag time ([2]; pH 6.3, over 60 hours at 40° C.): >60 h
ThT lag time ([2]; pH 6.6, over 60 hours at 40° C.): >60 h
ThT lag time ([2]; pH 6.8, over 60 hours at 40° C.): >60 h
ThT lag time ([2]; pH 7.0, over 60 hours at 40° C.): >60 h
stability towards fibrillation and aggregation ([2]; pH range 5.8-7.0, ThT-stress test and DLS (Table 3)): stable towards fibrillation and aggregation impacting peptide particle size
agonist activity at hAMYR2 (hAMYR2): agonist activity
agonist activity at hAMYR3 (hAMYR3): agonist activity
Peptide particle size (nm) ([3]; pH 5.8): 3.3 nm
Peptide particle size (nm) ([3]; pH 6.0): 4.0 nm
Peptide particle size (nm) ([3]; pH 6.3): 3.2 nm
Peptide particle size (nm) ([3]; pH 6.6): 3.0 nm
Peptide particle size (nm) ([3]; pH 6.8): 3.7 nm
Peptide particle size (nm) ([3]; pH 7.0): 3.0 nm
pI of the peptide (pI of the peptide): 4.36
agonist activity at hAMYR1 (hAMYR1): agonist activity

CC[C@H](C)[C@H](NC(=O)[C@@H]1CCCN1C(=O)CNC(=O)[C@H](Cc1ccccc1)NC(=O)[C@H](CC(N)=O)NC(=O)[C@H](CC(N)=O)NC(=O)[C@H](CO)NC(=O)[C@H](CO)NC(=O)[C@H](Cc1c[nH]cn1)NC(=O)[C@@H](NC(=O)[C@H](CC(C)C)NC(=O)[C@H](Cc1ccccc1)NC(=O)[C@H](CC(N)=O)NC(=O)[C@H](C)NC(=O)[C@H](CC(C)C)NC(=O)[C@H](CCCNC(=N)N)NC(=O)[C@H](CCC(N)=O)NC(=O)[C@@H](NC(=O)[C@H](C)NC(=O)[C@@H]1CSSC[C@H](NC(=O)[C@@H](N)CCCCN)C(=O)N[C@@H](CC(N)=O)C(=O)N[C@@H]([C@@H](C)O)C(=O)N[C@@H](C)C(=O)N[C@@H]([C@@H](C)O)C(=O)N1)[C@@H](C)O)C(C)C)C(=O)N[C@@H](CC(C)C)C(=O)N1CCC[C@H]1C(=O)N1CCC[C@H]1C(=O)N[C@H](C(=O)N[C@@H](CC(N)=O)C(=O)N[C@H](C(=O)NCC(=O)N[C@@H](CO)C(=O)N[C@@H](CC(N)=O)C(=O)N[C@H](C(=O)N[C@@H](Cc1ccc(O)cc1)C(N)=O)[C@@H](C)O)C(C)C)[C@@H](C)O [pramlintide]
effect on body weight [4]: reduce body weight or reduce weight gain
